Source: US20260055195A1 (COUNCIL OF THE QUEENSLAND INSTITUTE OF MEDICAL RESEARCH, published 2026)

T1: EphA3 expressed on tumour cell lines (LK63, U251, D270) (UniProt P29320 21-983)
T1 construct: whole, on cells; also called EphA3 on LK63 cells; EphA3 on U251 cells
T1 sequence (looked up): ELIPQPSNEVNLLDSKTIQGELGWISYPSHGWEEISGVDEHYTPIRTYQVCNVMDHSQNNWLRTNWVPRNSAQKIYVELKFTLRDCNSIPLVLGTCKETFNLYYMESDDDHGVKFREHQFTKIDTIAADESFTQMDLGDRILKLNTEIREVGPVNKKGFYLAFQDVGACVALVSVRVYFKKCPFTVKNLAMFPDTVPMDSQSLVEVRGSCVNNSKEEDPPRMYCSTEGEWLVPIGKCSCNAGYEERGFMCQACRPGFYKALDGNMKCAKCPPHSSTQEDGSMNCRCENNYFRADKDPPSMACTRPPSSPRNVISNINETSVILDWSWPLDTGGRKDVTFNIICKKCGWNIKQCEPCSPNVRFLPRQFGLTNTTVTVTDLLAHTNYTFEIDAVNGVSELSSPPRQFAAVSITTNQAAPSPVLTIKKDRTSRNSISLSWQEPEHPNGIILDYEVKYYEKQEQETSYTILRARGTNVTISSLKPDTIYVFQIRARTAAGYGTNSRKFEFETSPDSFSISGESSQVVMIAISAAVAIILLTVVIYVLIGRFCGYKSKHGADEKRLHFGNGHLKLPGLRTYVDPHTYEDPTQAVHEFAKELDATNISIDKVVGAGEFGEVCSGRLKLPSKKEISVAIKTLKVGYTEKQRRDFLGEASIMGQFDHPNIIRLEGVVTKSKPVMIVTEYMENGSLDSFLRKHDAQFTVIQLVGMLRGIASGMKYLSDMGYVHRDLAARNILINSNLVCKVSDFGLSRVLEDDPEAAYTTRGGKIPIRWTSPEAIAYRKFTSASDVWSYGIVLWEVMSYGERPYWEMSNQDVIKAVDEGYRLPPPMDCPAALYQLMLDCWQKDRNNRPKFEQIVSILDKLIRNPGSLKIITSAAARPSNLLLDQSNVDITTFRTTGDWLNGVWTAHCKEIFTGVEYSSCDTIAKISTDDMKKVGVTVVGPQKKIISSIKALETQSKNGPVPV


Experiments:
[1] = biological target: T1, EphA3 expressed on tumour cell lines …; assay: flow cytometry, subclone supernatant on LK63 cells
[2] = biological target: T1, EphA3 expressed on tumour cell lines …; assay: flow cytometry on glioma cell lines D270 and U251

| binding result [1] | binding result [2] | Binder |
| --- | --- | --- |
| binds |  | Clone 2D4-1 anti-EphA3 monoclonal antibody (antibody, V domains shown, Mouse hybridoma monoclonal, screened as subclone supernatant) VH: QVHLKESGPGLVAPSQSLSITCTVSGFSLTGYGVNWIRQPPGKNLEWLGMIWGDGSTDYNSVLKSRLSISKDNAKSQVFLEMNSLQTDDTANYYCARDRGISYYYAMDYWGQGTSVTVSS VL: DIVLTQSPASLAVSLGQRATISCRASKSVSASGYSYLHWYQQKPGQPPKLLIFLAYNLGSGVPARFSGSGAGTDFTLNIHPVEEEDAATYYCQHSREFPLTFGAGTKLELK |
|  | binds | Clone 3C3-1 anti-EphA3 monoclonal antibody (antibody, V domains shown, Mouse hybridoma monoclonal, screened as subclone supernatant) VH: QVQLQQSGAELARPGASVKMSCKSSGYTFTIYTIHWVKQRPGQGLEWIGYINPSSDYTNYNQKFKDKATLTADKSSTTAYMQLSSLTSEDSAVYYCVREGAYGNYDFAMDYWGQGTSVTVSS VL: DVLMTQTPLSLPVSLGDQASISCRSSQNIVHNNGNTYLEWYLQKPGQSPKLLIYKVSNRFSGVPDRFSGSGSGTDFTLKISRVEAEDLGVYYCFQTSHVPYTFGGGTKLEIK |
